Measured values from patent US20260069679A1.
pKd: −log10 of the molar value.

How the values were obtained:
[1] = biological target: SS-L2-LuS (MERS-CoV EMC/2012 spike stem fused to Aquifex aeolicus lumazine synthase); assay: BLI, 1:1 fit
[2] = biological target: SS-L6-Aferr; assay: BLI, 1:1 fit
[3] = biological target: SS-L6-LuS; assay: BLI, 1:1 fit
[4] = biological target: SS\u0394G4Loop-L6-Aferr (MERS-CoV EMC/2012 spike stem fused to human apoferritin); assay: BLI, 1:1 fit
[5] = biological target: SS\u0394G4Loop-L6-LuS (MERS-CoV EMC/2012 spike stem fused to Aquifex aeolicus lumazine synthase); assay: BLI, 1:1 fit
[6] = biological target: SS-L2-LuS (MERS-CoV EMC/2012 spike stem fused to Aquifex aeolicus lumazine synthase)
[7] = biological target: MERS SS Nanoparticle (NP)
[8] = biological target: MERS SS delG4loop Nanoparticle; assay: BLI sensorgrams, six curves without concentration labels, time axis 0-500 s

CC40.8 (antibody)
pKd [1]: 9.13
kon [1]: 315000 M⁻¹ s⁻¹
pKd [2]: 8.71
kon [2]: 268000 M⁻¹ s⁻¹
pKd [3]: 8.73
kon [3]: 219000 M⁻¹ s⁻¹
pKd [4]: 8.56
kon [4]: 184000 M⁻¹ s⁻¹
pKd [5]: 8.64
kon [5]: 218000 M⁻¹ s⁻¹

G4 (antibody)
maximum binding [6]: 1.3 nm
pKd [7]: 11.77
pKd [1]: 11.75
kon [1]: 270000 M⁻¹ s⁻¹
pKd [2]: 11.52
kon [2]: 155000 M⁻¹ s⁻¹
pKd [3]: 11.34
kon [3]: 133000 M⁻¹ s⁻¹
pKd [4]: 11.55
kon [4]: 229000 M⁻¹ s⁻¹
pKd [5]: 11.46
kon [5]: 147000 M⁻¹ s⁻¹
pKd [8]: 11.52
